Test results: patent publication US20220213153A1 (University of Washington, published 2022)
Each block holds one binder with its values, some of them ahead of it.

Experiments:
[1] = target: T1, D2_Wm-01_truncB; assay: SEC and negative-stain EM of the two-component ring
T1 construct: D2_Wm-01B with one heptad deleted from the homodimer helices; also called component B of D2_Wm-01_trunc; D2-1_trunc
T1 chain: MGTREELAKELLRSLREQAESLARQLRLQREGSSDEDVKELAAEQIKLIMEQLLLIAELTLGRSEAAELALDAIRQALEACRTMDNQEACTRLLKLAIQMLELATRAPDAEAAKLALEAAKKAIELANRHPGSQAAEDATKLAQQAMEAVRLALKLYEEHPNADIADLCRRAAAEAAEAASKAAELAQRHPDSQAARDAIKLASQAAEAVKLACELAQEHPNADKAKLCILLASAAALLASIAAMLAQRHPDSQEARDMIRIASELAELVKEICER

[2] = target: T2, D2_Wm-02B; assay: Ni-NTA pulldown of bicistronically co-expressed components (one His-tagged), SDS-PAGE, SEC, SAXS
T2 construct: De novo designed component of the two-component D2 dihedral ring D2_Wm-02; also called component B of D2_Wm-02; D2-2
T2 chain: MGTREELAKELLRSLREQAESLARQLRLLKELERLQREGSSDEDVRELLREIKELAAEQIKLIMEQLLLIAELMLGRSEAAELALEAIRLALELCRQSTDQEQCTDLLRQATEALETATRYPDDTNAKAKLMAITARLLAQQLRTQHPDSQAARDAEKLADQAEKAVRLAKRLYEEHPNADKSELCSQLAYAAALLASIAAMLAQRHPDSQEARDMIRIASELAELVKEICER

[3] = target: T3, D2_Wm-01B; assay: as above
T3 construct: De novo designed component of the two-component D2 dihedral ring D2_Wm-01; untagged (only one component carries the 6xHis tag); also called component B of D2_Wm-01; D2-1
T3 chain: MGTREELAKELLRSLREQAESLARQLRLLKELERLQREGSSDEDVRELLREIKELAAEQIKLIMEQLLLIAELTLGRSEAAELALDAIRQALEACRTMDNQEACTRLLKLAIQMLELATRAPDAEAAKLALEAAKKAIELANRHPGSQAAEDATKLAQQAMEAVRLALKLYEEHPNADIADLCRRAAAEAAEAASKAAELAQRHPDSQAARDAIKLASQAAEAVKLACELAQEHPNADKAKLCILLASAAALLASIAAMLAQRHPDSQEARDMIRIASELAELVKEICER

- binding result [1]: binds
B1: D2_Wm-01_truncA (designed binder)
chain: MGTREESLKEQLRSLREQAELAARLLRLQREGSSDEDVKELVAEIIKLIMEQLLLIAEQLLGRSEAAELALRAIRLALELCRQSTDLEECLRLLKTAIKALENALRHPDSTTAKARLMAITARLLAQQLRTQHPDSQAARDAEKLADQAERAVRLATRLYEEHPNAEISEMCSQAAYAAALMASIAAILAQRHPDSQIARDLIRLASELAEMVKRMCERGGSWGLEHHHHHH
notes: D2_Wm-01A with one heptad deleted from the homodimer helices; also called component A of D2_Wm-01_trunc; D2-1_trunc

- binding result [2]: binds
B2: D2_Wm-02A (designed binder)
chain: MGTREEIIRELARSLAEQAELTARLERSLREQERLQREGSSDEDVRELIREQKELVREILKLIAEQILLIAELLLASTRSEAAELALRAIRNAIEACKNADNEEMCRQLMRMAQNALELATQAPDAEAAKAALRAIDLAVELASRHPGSQAADDALKLAQQAAEAVKLALDLYREHPNADIADLCRKAAKEAAEAASKAAELAQRHPDSQAARDAIKLASQAAEAVKLACELAQEHPNAEIAKMCILAASAAALMASIAAILAQRHPDSQIARDLIRLASELAEMVKRMCERGGSWGLEHHHHHH
notes: De novo designed component of the two-component D2 dihedral ring D2_Wm-02; also called component A of D2_Wm-02; D2-2

- binding result [3]: binds
B3: D2_Wm-01A (designed binder)
chain: MGTREESLKEQLRSLREQAELAARLLRLLKELERLQREGSSDEDVRELLREIKELVAEIIKLIMEQLLLIAEQLLGRSEAAELALRAIRLALELCRQSTDLEECLRLLKTAIKALENALRHPDSTTAKARLMAITARLLAQQLRTQHPDSQAARDAEKLADQAERAVRLATRLYEEHPNAEISEMCSQAAYAAALMASIAAILAQRHPDSQIARDLIRLASELAEMVKRMCERGGSWGLEHHHHHH
notes: De novo designed component of the two-component D2 dihedral ring D2_Wm-01 (8 chains in all, 2 chains as the asymmetric unit); also called component A of D2_Wm-01; D2-1
